Article PMC7610980

Biological target: bat RaTG13 spike (S) glycoprotein ectodomain (bat coronavirus RaTG13)
Experiment: BLI

Sequence of human ACE2 ectodomain (residues 19-615) (Q9BYF1 19-615): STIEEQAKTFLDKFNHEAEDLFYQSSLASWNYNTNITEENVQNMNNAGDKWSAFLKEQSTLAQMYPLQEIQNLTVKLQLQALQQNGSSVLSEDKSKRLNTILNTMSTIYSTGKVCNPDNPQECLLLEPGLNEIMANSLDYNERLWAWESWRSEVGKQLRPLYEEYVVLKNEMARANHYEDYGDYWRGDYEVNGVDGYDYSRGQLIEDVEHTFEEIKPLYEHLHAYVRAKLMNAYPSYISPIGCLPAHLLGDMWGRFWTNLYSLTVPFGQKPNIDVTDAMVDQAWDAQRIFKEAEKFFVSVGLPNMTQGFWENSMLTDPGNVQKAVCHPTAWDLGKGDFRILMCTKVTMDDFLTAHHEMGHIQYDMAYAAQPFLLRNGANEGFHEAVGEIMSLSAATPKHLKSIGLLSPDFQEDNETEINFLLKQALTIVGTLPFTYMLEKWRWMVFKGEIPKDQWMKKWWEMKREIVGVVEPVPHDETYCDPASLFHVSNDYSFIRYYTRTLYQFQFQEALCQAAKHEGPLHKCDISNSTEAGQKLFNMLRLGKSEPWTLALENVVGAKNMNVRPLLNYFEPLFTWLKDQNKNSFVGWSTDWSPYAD

human ACE2 ectodomain (residues 19-615) (from UniProt Q9BYF1-1 19-615) (receptor)
Kd: > 40 µM
